Columns and labels:
[1] = cell surface biotinylation, Western blot; details: glycan lost; control: wild type
I-V relationship = details: glycan lost; control: wild type

B1: TRPM5: N932Q (protein)
parent chain: MQDVQGPRPGSPGDAEDRRELGLHRGEVNFGGSGKKRGKFVRVPSGVAPSVLFDLLLAEWHLPAPNLVVSLVGEEQPFAMKSWLRDVLRKGLVKAAQSTGAWILTSALRVGLARHVGQAVRDHSLASTSTKVRVVAVGMASLGRVLHRRILEEAQEDFPVHYPEDDGGSQGPLCSLDSNLSHFILVEPGPPGKGDGLTELRLRLEKHISEQRAGYGGTGSIEIPVLCLLVNGDPNTLERISRAVEQAAPWLILVGSGGIADVLAALVNQPHLLVPKVAEKQFKEKFPSKHFSWEDIVRWTKLLQNITSHQHLLTVYDFEQEGSEELDTVILKALVKACKSHSQEPQDYLDELKLAVAWDRVDIAKSEIFNGDVEWKSCDLEEVMVDALVSNKPEFVRLFVDNGADVADFLTYGRLQELYRSVSRKSLLFDLLQRKQEEARLTLAGLGTQQAREPPAGPPAFSLHEVSRVLKDFLQDACRGFYQDGRPGDRRRAEKGPAKRPTGQKWLLDLNQKSENPWRDLFLWAVLQNRHEMATYFWAMGQEGVAAALAACKILKEMSHLETEAEAARATREAKYERLALDLFSECYSNSEARAFALLVRRNRCWSKTTCLHLATEADAKAFFAHDGVQAFLTRIWWGDMAAGTPILRLLGAFLCPALVYTNLITFSEEAPLRTGLEDLQDLDSLDTEKSPLYGLQSRVEELVEAPRAQGDRGPRAVFLLTRWRKFWGAPVTVFLGNVVMYFAFLFLFTYVLLVDFRPPPQGPSGPEVTLYFWVFTLVLEEIRQGFFTDEDTHLVKKFTLYVGDNWNKCDMVAIFLFIVGVTCRMLPSAFEAGRTVLAMDFMVFTLRLIHIFAIHKQLGPKIIVVERMMKDVFFFLFFLSVWLVAYGVTTQALLHPHDGRLEWIFRRVLYRPYLQIFGQIPLDEIDEARVNCSTHPLLLEDSPSCPSLYANWLVILLLVTFLLVTNVLLMNLLIAMFSYTFQVVQGNADMFWKFQRYNLIVEYHERPALAPPFILLSHLSLTLRRVFKKEAEHKREHLERDLPDPLDQKVVTWETVQKENFLSKMEKRRRDSEGEVLRKTAHRVDFIAKYLGGLREQEKRIKCLESQINYCSVLVSSVADVLAQGGGPRSSQHCGEGSQLVAADHRGGLDGWEQPGAGQPPSDT
**Q.** For B1, which localisation_or_trafficking [1] is on record?
**A.** Its localisation_or_trafficking is “no change”.

**Q.** What about the “other: channel biophysical properties” value (I-V relationship) of the same protein?
**A.** The value was “no change”.

— publication PMC3932411
